This data set in a line: soluble on expression in E. coli; label from the status in PepcDB or PDB records.
Take “MVFGFTKRDRRVPDLSRYDYYYQNHEDYNKSPQLSAAAASAASAASPDRTNYSRSHSLVSHAPSIPRQRSSVKSPGRRLSTSSAAPPTSRAAAKQYSQKTYSLRSQRSGEYHLHPPGYTTNGSRMNSMTSGANVRRNYGKNKSTAGNNNDSRANSITVKTTQVTDPSGRTQSITKKTIRKINGYEYVETTTTTKNLVPLGDSQRHFDEFSENYMLQDDDILEEQASDNIHDIIEENETDNEKPYSPVSESHLQDDSELNVEKPDFPLGSYFHHKYSTDVMPLEEESSLSNFSDALDYIPPTHQTSSKYIHNKRKQASTTRRKKRPPAVKNAEAEAKKPLTEAEMYLKALEVAKRNVYHTDAASDNASAPLGSNKSRKSRMGQKMTLRSSSDSPTATANLVKSNVEVQPKRFTSSFFSRNTKSAPHEVHNHSVSTHFKSNKAVDPVPEPKSANTGLTDKEMYDQALKIAQARYYNSHGIQPEAVDNSTTAAKPRQVGVSHLGSTGSIPPNEQHYLGDSEIPVQSEVHEYEPIPLQKTKTTGSSKNKFKTMFDKVLQFSQENYGYQHKKEQGEQTPVTRNAEESFPAASISEGVTTAKPSSNEGVMTNPVVTDSPSPLQQQIDSTTASSNGQSQGNVPTSAVASTTRTRSPELQDNLKSSSSLLQDQTPQRQEDATDPTTSSTNELSAAEPTMVTSTHATKTIQAQTQDPPTKHKKSSFFTKLFKKKSSR”: the “soluble on expression in E. coli” value was “soluble”.
As for “MVGAHQMKSEEQANMQLQQQAVLGLNWMQDSGEYKALAYQAYNAAKVAFDHAKVAKGKKKAVVADLDETMLDNSPYAGWQVQNNKPFDGKDWTRWVDARQSRAVPGAVEFNNYVNSHKGKVFYVTNRKDSSEKAGTIDDMKRLGFNGVEESAFYLKKDKSAKAARFAEIEKQGYEIVLYVGDNLDDFGNTVYGKLNADRRAFVDQNQGKFGKTFIMLPNANYGGWEGGLAEGYFKKDTQGQIKARLDAVQAWDGK”, the entry is “soluble”; as for “MVGNMNREALFKTLTTGYLHFWSLSRKKLWLKGETSGNFQIIEEFKVDCDADAVLFKVTSLGPICHTGNYTCFYRSYDELVNSKS”, “soluble”.
To “MVHNFRNDITVDWCPGCGDFGILTALTSALSELNLGSHDVAIISGIGCSGKTPHYVNAAGAHTLHGRAIPVAVGVKLTNPHLKVIVTGGDGDLMSIGAGHLVAEGRRNSGITVLMYDNAVYGLTKGQAAPTLKLGVQTKSLARPNIYDAINPIMLAISSGYSFVARGFSFEIAHLKNIIKQAIMFPGSSFIDILQPCPTYNNINTMDWYKKRVYKLDDDKSWDPVITENDPKAEEKYNKAIEKSFEWGDKIPIGVFYVNKKVPPFTERLKQYVDNYEQIPPAVQDVSTEDGKPILDPFETFKDKI” belongs “not soluble”; to “MVHTPLNFKFSEKREEWNLRFCRNVGVSIVELVTADASSAYVRGLMAVNGSKVYSILPFISIDAEKAKKAKFPEDRMSGVRGKVIPSVLPEIKGETILDIGCGFGTLTMELAKNNPESQVYGIDLHDSLTGQAEMNAEVLGLPNVEFRTGSAYALPFEKDSIDAVTCFLMLHHLEDIKFALFEIKRVLKKGGSLTAVEPLAHQHHHGPQLSEAEWKELFEEAGFGTETENMEGAVVLRAVKRELEHHHHHH”, “not soluble”; to “MVKDLSDMSLKELWQLFPIFLVEHKEEWEDWYEEEKERLLHLLPSQSIKSISHIGSTAVPDIWAKNIVDILLEVPEKEDLQDFKKRLLDAGYLLMSEGEKRLSFNKGYTKDGFAEKVFHLHLRYQGDNDELYFRDYLREYPEVAKDYERLKLGLWEKYEHNRDAYTDAKSDFIRKYTQKAKKNDKGKDN”, “not soluble”.
Regarding “MVKGDITTAFIAEEYPDGFQGAVLDEPTLRRVAAAAAAMNRVAEIRRTRISGTMNNHERHVGVDWVVALQGESYHVSIAADREGSTVSFSDGSSLRVTSDWTPGQPLEHHHHHH”, the “soluble on expression in E. coli” value is “not soluble”.
On to “MVKGRIHSVESCGTVDGPGIRYVIFTQGCLLRCQYCHNADTWEIGKGKEITVEEVMQDVTCYLPFIEASGGGITVSGGEPLLQLDFLIELFKKCKAAGIHTTIDSSGGCYSEEPEFRNKLDILMDYTDLVLLDLKHIDSKKHRKLTGKPNEHILQFARYLSDKNKPIWVRHVLVPGVTDNEEDLQKLSSFIQSLSNVQKVEVLPYHKLGVYKWEALGHKYPLANVEPPTEKNVEHAKYILQAV”, for which the “soluble on expression in E. coli” value is recorded as “not soluble”.
To “MVKSIENVKLTKGLFYNSQKKGNDVILALDIDRLLAPYYEAANLPPKKRSYGGWEEREIRGHSLGHWLSAAAAMYETTGDKALLERIDRAVQELATIQDDVGYVGGVKRAHFDEMFSGEFQVGHFNIAGTWVPWYNLHKLFAGLIDVHQLTGHSLALTVVTKLADWAKKGTDQLTDDQFQRMLICEHGGMNEAMADLYTLTGHKDYLQLAIRFCHWAVLEPLANGIDELEGKHANTQIPKVIGAAKLFEITGDDTYRAIAEFFWRQVTNDRSYIIGGNSNSEHFGPANKETLGVETAETCNTYNMLKLTEHLFRWNRSSQLMDYYEKALYNHILASQDPDSGMKTYFVSLQPGHFKVYSSLEESFWCCFGTGLENPARYTRTIYDRDDRHIYVNLFMASEIHLKDLQVQIRQETNFPETDRTKLTFVKADGVSIKLHIRVPEWVAGPVTARINGKETFSESGADYLTIEREWQKGDEIEVHLPMELRIYEAKDDSHKVGIMYGPIVLAGTFGKDHFPETDIVPNHLSLHNHPLIDVPTLVATKKTPDQWIHPVEGRSLTFRTAAIGQPGNVQITLIPFYALHHERYTVYWNLMSEVEYEAFKARKEVESDQLQARTVDAVQPGEQQPEVEHQLKANHSETGYLNIMQKRWRDSRGEDGFFSYVMKVKPNQQMSLFVTYYGGDHGLFVDGKWCDRSFRILIDDEVIKEEQLLGKNPGETLDVYYPIPLALTEGKEEVVVTFASKEGTVAGGVYGVRMLCNLEHHHHHH” belongs “soluble”; to “MVKSVGCKNLSLDVKKAIVAGFEQGTPTKMLALQIQRSPSTIWKVIKKYQTEKSVALRISPGRPRVTTHRMDRNILRSAREDPHRTATDIQTIISSPNEPVPSKRTVRRRLQQAGLHGRKPVKKPFISKKNRMARVAWAKAHLRWGRQEWAKHIWSDESKFNLFGSDGNSWVRRPVGSRYSPKYQCPTVKHGGGSVMVWGCFTSTSMGPLRRIQSIMDRFQYENILETTMRPWALQNVGRGFVFQQDNDPKHTSLHVRSWFQPCRVHLLDWPSQSPDLNPIEHLWEELERRLGGIRASNADAKFNQLENAWKAIPMSVIHKLIDSMPRRCLAVIDANGYATKY”, “not soluble”; to “MVLGKPQTDPTLEWFLSHCHIHKYPSKSTLIHQGEKAETLYYIVKGSVAVLIKDEEGKEMILSYLNQGDFIGELGLFEEGQERSAWVRAKTACEVAEISYKKFRQLIQVNPDILMRLSAQMARRLQVTSEKVGNLAFLLVTGRIAQTLLNLAKQPDAMTHPDGMQIKITRQEIGQIVGCSRETVGRILKMLEDQNLISAHGKTIVVYGTR”, “soluble”.
For the sequence “MVLMIVSGRSGSGKSVALRALEDMGFYCVDNLPVVLLPDLARTLADRQISAAVSIDVRNMPESPEIFEQAMNNLPGAFSPQLLFLDADRNTLIRRYSDTRRLHPLSSKNLSLESAIDKESDLLEPLRSRADLIVDTSEMSVHELAEMLRTRLLGKRERELTMVFESFGFKHGIPIDADYVFDVRFLPNPHWDPKLRPMTGLDKPVAAFLDRHTEVHNFIYQTRSYLELWLPMLETNNRSYLTVAIGCTGGKHRSVYIAEQLADYFRSRGKNVQSRHRTLEKRKT”, the “soluble on expression in E. coli” value is on record as “not soluble”.
For the sequence “MVLSQRQRDELNRAIADYLRSNGYEEAYSVFKKEAELDMNEELDKKYAGLLEKKWTSVIRLQKKVMELESKLNEAKEEFTSGGPLGQKRDPKEWIPRPPEKYALSGHRSPVTRVIFHPVFSVMVSASEDATIKVWDYETGDFERTLKGHTDSVQDISFDHSGKLLASCSADMTIKLWDFQGFECIRTMHGHDHNVSSVSIMPNGDHIVSASRDKTIKMWEVQTGYCVKTFTGHREWVRMVRPNQDGTLIASCSNDQTVRVWVVATKECKAELREHRHVVECISWAPESSYSSISEATGSETKKSGKPGPFLLSGSRDKTIKMWDVSTGMCLMTLVGHDNWVRGVLFHSGGKFILSCADDKTLRVWDYKNKRCMKTLNAHEHFVTSLDFHKTAPYVVTGSVDQTVKVWECR”, the “soluble on expression in E. coli” value is listed as “soluble”.
To “MVMFMVFRILGRMTKIEKEIKEEEAKYDLIIKNEAKIEPIVAEEDMEFKQGDIKPIRIKKIKIPPMSVLLICPYGRHRVGHVVAVGEEVPMPIDVEREVDMAMFACGFEGEVKKGDLIGMLLILAAEKRELEHHHHHH” belongs “not soluble”.
As for “MVMKQTKQTNILAGAAVIKVLEAWGVDHLYGIPGGSINSIMDALSAERDRIHYIQVRHEEVGAMAAAADAKLTGKIGVCFGSAGPGGTHLMNGLYDAREDHVPVLALIGQFGTTGMNMDTFQEMNENPIYADVADYNVTAVNAATLPHVIDEAIRRAYAHQGVAVVQIPVDLPWQQIPAEDWYASANSYQTPLLPEPDVQAVTRLTQTLLAAERPLIYYGIGARKAGKELEQLSKTLKIPLMSTYPAKGIVADRYPAYLGSANRAAQKPANEALAQADVVLFVGNNYPFAEVSKAFKNTRYFLQIDIDPAKLGKRHKTDIAVLADAQKTLAAILAQVSERESTPWWQANLANVKNWRAYLASLEDKQEGPLQAYQVLRAVNKIAEPDAIYSIDVGDINLNANRHLKLTPSNRHITSNLFATMGVGIPGAIAAKLNYPERQVFNLAGDGGASMTMQDLATQVQYHLPVINVVFTNCQYGFIKDEQEDTNQNDFIGVEFNDIDFSKIADGVHMQAFRVNKIEQLPDVFEQAKAIAQHEPVLIDAVITGDRPLPAEKLRLDSAMSSAADIEAFKQRYEAQDLQPLSTYLKQFGLDDLQHQIGQGGF”, the entry is “soluble”; as for “MVMMSKQLTAQAPVDPIVLGKMGSSYGIRGWLRVFSSTEDAESIFDYQPWFIQKAGQWQQVQLESWKHHNQDMIIKLKGVDDRDAANLLTNCEIVVDSSQLPQLEEGDYYWKDLMGCQVVTTEGYDLGKVVDMMETGSNDVLVIKANLKDAFGIKERLVPFLDGQVIKKVDLTTRSIEVDWDPGFLEHHHHHH”, “soluble”; as for “MVNSTTLAHLNTNIDHLTTVLSSYAGRDKAIRSLAFYLQLKSTTSPDNAKEILGLAKQLSAARLVSRQFNHPGMLKSCRQIMQAFQTGRIGDPLEFLTGAAVTGIYTVYGFVELLAWLSDAKILAFNSARLYKWCLYLWLSELINGIVRQMRVIYRKGIEKSQEDILTLVGLSSDFISGVNSLPHKILWAGKLSMRQSASFSLLASIIGFYKLW”, “not soluble”.
With “MVNVRGPVLEVDDPKSVETSHGTSQLAEVVIRPERGAASPTTVTLWGKWTETVEYLAVGMELLATDLDERTFDGDTQYSTTGESAVVVEPDFLVDVTDIRGWVQCPRMYYLNKLTGLPLKYPVLKGTVVHEVFGDLLRGRDLESSIESRVAEAALDIGLLGETADAVADDVRQNAAAIQGWLQQGRFGEDSWRSEQTLISERFGIKGRADAVRRGMPVELKTGKNLKRSPRFQDKVQAACYGLLLADDIADPPDTGTLLYTKNSALDRSEESGDLSPAKEFSIGPGFLKYVLRVRNEIAAAEYDMSVPTGFEADANCDYCFEQDTCMVVSGRLDQESKAGQLGEPLPEPERAYFERLYRAIEEERREVHAEYRKLWEQSAAERADDDRALVDLDPLGREPLDGGRWALSARRTSDAVSKIREGDRVLASDGHPTQGTAELATVRHLDDEIVVVADEPFELRRIDVYPSELGVDRQLTALHDAVLRGDPDRKDVLFGRREPSFVGDHRPIIDNNESQNEAVNRALAAEDFALIHGPPGTGKTYTLAQTVQALVARGDRVLLSAFTNRAVDNAIEALEAQGFTDVLRWGSESGVRDDMQSYRFDRTGDPRERAAALRDAQVVAATTAACGSRALKQQQFDVAVIDEAGQLTEPGTFLATNRADRFVLVGDHEQLPPVVRAENDLQTSLFEQLIDDYPDAAVMLDRQYRMSQRIQYFASREFYDGQLRPANAEVASQRLADLDGVDVSTLPSALRDAVSFVDPGLEHHHHHH”, the “soluble on expression in E. coli” value is recorded as “not soluble”.

These data come from the DeepSol protein solubility set.
